In patent US20230295331A1 (PROMAB BIOTECHNOLOGIES, published 2023):
Values joined by “and” are separate entries in the source; they are usually repeats but may differ in a detail not shown here. Identical values can stand only once.

Key:
[1] = target: T1, CS1 protein (SLAM family member 7, CD319) on cells (human, UniProt Q9NQ25 23-335); test: flow cytometry binding titration on CHO-CS1 cells
T1 construct: The cells are CHO-CS1 (bought from BPS Bioscience), Hela-CS1 (transduced with CS1 cDNA lentivirus) and the myeloma lines, which carry CS1 of their own; also called CHO-CS1 cells; Hela-CS1 cells
T1 sequence: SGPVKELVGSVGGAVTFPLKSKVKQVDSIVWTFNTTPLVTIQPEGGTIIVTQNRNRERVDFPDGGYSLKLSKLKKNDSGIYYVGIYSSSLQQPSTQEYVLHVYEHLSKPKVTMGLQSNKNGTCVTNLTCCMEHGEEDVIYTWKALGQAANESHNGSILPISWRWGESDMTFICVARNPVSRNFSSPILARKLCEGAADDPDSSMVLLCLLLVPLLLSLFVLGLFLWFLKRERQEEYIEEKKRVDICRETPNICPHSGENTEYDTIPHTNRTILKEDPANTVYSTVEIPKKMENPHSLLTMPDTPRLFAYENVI

[2] = target: T1, CS1 protein (SLAM family member 7, …); test: binding titration by flow cytometry on CHO-CS1 cells

EC50 (read off the curve) [1]: ~0.7 µg/mL
Kd [2]: 5.3 nM and 0.8 µg/mL
B1: mouse monoclonal anti-human CS1 antibody, clone 7A8D5 (antibody, V domains shown)
VH: VQLQQSGPEVVRPGVSVKISCKGSGYTFTDYAIHWVKQSHAKSLEWIGVINTYNGNTNYNQKFKGKATMTVDKSSSTAYMELARLTSEDSAIYYCTRTGYYYGPSHYFDYWGQGTTLTVSS
VL: DIVLTQSPASLTVSLGQRATMSCRASKSVSTSGYSYVHWYQQKPGQPPKLLIYLASNLESGVPARFSASGSGTDFTLNIHPVEEEDAATYYCQHSRELPWTFGGGTKLEIKR
notes: Mouse monoclonal antibody from a hybridoma, purified on a Protein G column; also called anti-CS1 antibody clone 7A8D5; CS1 clone 7A8D5
